The target in test [1] is Nfluc416-WASP (human) (UniProt P42768). Kind of test: split reporter (BiFC, NanoBiT); bimolecular luminescence complementation (split firefly luciferase) in living HEK 293 cells, 24 h after transient cotransfection of the pair (50 ng/well) with pRL-tk; D-luciferin 150 ug/ml; IVIS CCD camera; ratio FL at 600 nm to RL at 500 nm; wild-type pairs also with co-expressed GEF or GAP catalytic domains.

Test [2] concerns the target Nfluc416-PAK (UniProt Q13153). Kind of test: split-luciferase complementation (BiLC) optical imaging in transiently cotransfected 293 cells. Conditions: parent: est. 4.6; read off a plot.
In test [3] the target is Nfluc416-PKN (human) (UniProt Q16512). Kind of test: split reporter (BiFC, NanoBiT); bimolecular luminescence complementation (split firefly luciferase) in living HEK 293 cells, 24 h after transient cotransfection of the pair (50 ng/well) with pRL-tk; D-luciferin 150 ug/ml; IVIS CCD camera; ratio FL at 600 nm to RL at 500 nm; wild-type pairs also with co-expressed GEF or GAP catalytic domains.
Chain of Nfluc416-PKN (human) (Q16512 13-112): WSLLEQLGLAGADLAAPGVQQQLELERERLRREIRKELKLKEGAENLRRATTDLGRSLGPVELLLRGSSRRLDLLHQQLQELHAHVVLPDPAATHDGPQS

Chain of Nfluc416-WASP (human) (P42768 220-288): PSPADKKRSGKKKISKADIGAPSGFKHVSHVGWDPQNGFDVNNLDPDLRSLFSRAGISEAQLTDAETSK

Turning to “CDC42-Cfluc398 (CDC42 G12V) (from UniProt P60953 1-176; P60953 171-191) (natural protein)”, in test [1], the reconstituted luminescence (FL/RL), fold over CDC42 F37A stood at 12.7 fold; the reconstituted luminescence (FL/RL), fold over CDC42 T17N was found to be 6.8 fold; the reconstituted luminescence (FL/RL), fold over CDC42 WT was 2.9 fold. In the case of “Cfluc398-RacI(WT) (from UniProt P63000) F37A”, in test [2], the response came out at 1.4 FL/RL. On the same count and under the same terms, as for “Cfluc398-RacI(WT) (from UniProt P63000) T17N”, the figure is 2.1 FL/RL. For “Cfluc398-RhoA(G14V) (from UniProt P61586 1-193) (natural protein)”, the luminescence signal, fold of the active mutant over the wild type in test [3] came out at 5.15 fold.

Values taken from paper PMC3627919.
